{"source": "paper PMC7118173", "about": "(Nature Communications, 2020)", "molecules": {"B1": {"name": "SepF: C. glutamicum SepF (cg2363), full-length (protein)", "chain": "MSMLKKTKEFFGLAPYEAEHEDAYYADEPRYEGTAAYAPEYRERDYGYAPEAPAPVAPSPAPRSYQSTIVPVELHSFEDAQVIGGAFRDGDAVVFDMSLLSREEARRIVDFAAGLCFALRGKMQKIDSVTFAVVPELSNISTSELERAARIR", "modifications": "left off: His6, N-terminal, cleaved | SUMO, N-terminal, cleaved"}, "B2": {"name": "SepFK125E/F131A-Scarlet: Scarlet-tagged SepF impaired for FtsZ binding (protein)", "chain": "B1 chain with K125E, F131A", "modifications": "left off: mScarlet-I, C-terminal, kept"}}, "key": {"FtsZ [1]": {"system": "FtsZ"}, "[2]": {"test": "Negative stain EM of SUVs with SepF", "format": "biochemical", "conditions": "end-point of SepF + SUVs reaction, 50 μM"}, "FtsZ [3]": {"system": "FtsZ", "remark": "listed apart in the source", "procedure": "After, 100 µl of the mixture were place in a 96-well-plate that contained GTP at 2 mM final concentration. Reactions were incubated at room temperature for 10 min and 100 µl of the developing reagent was added. The mixture was incubated at room temperature for 25 min to allow development of the green color and absorbance was measured at 620 nm using a Varioskan™ LUX (Thermo Fisher Scientific). Reactions were performed in triplicate for each condition."}, "[4]": {"test": "Negative stain EM of SepF rings", "format": "physicochemical", "method": "For all samples, 400 mesh carbon coated grids (Electron Microscopy Sciences; CF 400-Cu) were glow-discharged on an ELMO system for 30 sec at 2 mA. 5 µl samples were applied onto the grids and incubated for 30 s, the sample was blotted, washed in 3 drops of water and then stained with 2% (weight/vol) uranyl acetate. Images were recorded on a Gatan UltraScan4000 charged coupled device (CCD) camera (Gatan) on a Tecnai T12 BioTWINLaB6 electron microscope operating at a voltage of 120 kV."}, "WT C. glutamicum": {"system": "WT C. glutamicum", "test": "Number of ring-like structures per cell, overexpression in WT", "format": "cell-based, Corynebacterium glutamicum", "conditions": "for ring-like structures per cell: overexpression in WT background"}, "Pino-sepF strain [5]": {"system": "Pino-sepF strain", "test": "Growth curves / complementation of the Pino-sepF strain", "conditions": "SepF depletion with 1% myo-inositol, exogenous construct induced", "procedure": "Positive colonies were grown in BHI media supplemented with 25 µg/ml kanamycin overnight at 30 °C and 120 rpm shaking.\nAll strains were plated in CGXII media plates with 4% (w/v) sucrose as a carbon source for 2 days at 30 °C and then single colonies were inoculated in 10 ml of CGXII media 4% (w/v) sucrose overnight at 30 °C and 120 rpm shaking. The next day, 20 ml of CGXII media supplemented with the appropriate repressor or inducer were inoculated with the overnight cultures to a starting OD600 of 1. OD600 measurements were taken every 1.5 h. Each growth curve represents the average of three different growth curves originally from three different single colonies. […] When required, CGXII media 4% (w/v) sucrose was supplemented with either 1% (w/v) myo-inositol, 50 ng/ml tetracycline or 1% (w/v) gluconate and 25 μg/ml kanamycin."}, "SepF [6]": {"system": "SepF", "test": "Western blots of whole-cell extracts (SepF depletion / expression)", "format": "cell-based, C. glutamicum", "conditions": "SepF under Ptac, WT", "method": "24 homogenizer. Crude extracts (120 μg) were analyzed by SDS-PAGE, electro-transferred onto a 0.2 μm Nitrocellulose membrane and blocked with 5% (w/v) skimmed milk. Membranes were incubated with an anti-SepF antibody (produced by Covalab, Supplementary Fig. 25a), an anti-FtsZ antibody (produced by Proteogenix, Supplementary Fig. 25b) or an anti-mNeonGreen antibody (purchased from Chromotek) for 1 h at room temperature."}, "SepF [7]": {"system": "SepF", "test": "SepF polymerization (turbidity) assay in the presence of SUVs", "format": "biochemical, C. glutamicum", "conditions": "SepF (or mutant) plus SUVs 50 µM each, pH 6.9, 25 °C", "method": "When used, FtsZCTD was added at a final concentration of 100 μM.\nReverse phase evaporation was used to prepare small unilamellar vesicles (SUVs). A 10 mM lipid solution made of an 8:2 mixture of 1-palmitoyl-2-oleoyl phosphatidylcholine (POPC) and 1-palmitoyl-2-oleoylglycero-3-phosphoglycerol (POPG) (Avanti Polar Lipids) was prepared as described. Chloroform was removed by evaporation under vacuum conditions and the dried phospholipid film was resuspended in a mixture of diethyl ether and buffer (25 mM Hepes pH 7.4, 10 mM MgCl2 and 150 mM KCl). Diethyl ether was eliminated by reverse phase evaporation and by slowly decreasing the pressure to the vacuum. SUVs were obtained by sonication during 30 min at 4 °C. The diameter and charge of SUV were determined by measuring dynamic light scattering (DLS) and electrophoretic mobility profiles on a Zetasizer Nano instrument (Malvern Instruments)."}, "[8]": {"system": "C. glutamicum ATCC13032 whole-cell extracts", "test": "SepF and FtsZ quantification by Western blot", "format": "cell-based, Corynebacterium glutamicum", "conditions": "60 ugr loaded"}, "Dynamic light scattering": {"test": "Dynamic light scattering", "format": "physicochemical", "conditions": "SUVs + SepF 50 µM each, pH 6.9, 25 °C", "method": "Polydispersity of the samples was measured using Dyna-pro Plate Reader (Wyatt technology) equipped with an 830 nm laser and a temperature control module. The Dynamics software (version 7.9) was used to schedule data acquisition and data analysis. For each well, 20 measurements of 10 s were averaged and this operation was repeated 20 times for each condition at 25 °C. For samples containing FtsZCTD, the peptide was used at a final concentration of 100 µM. All the experiments were carried out as minimum three biological and technical replicates."}, "FtsZ and SUVs": {"system": "FtsZ and SUVs", "test": "Cryo-EM of ternary complex FtsZ-GTP + SepF + SUVs", "format": "biochemical, C. glutamicum", "conditions": "100 μM SUVs, 10 μM SepF, 10 μM FtsZ, 3 mM GTP", "method": "5 µl of sample were deposited onto glow-discharged lacey carbon copper grids (Ted Pella) and plunge-frozen in liquid ethane using a Leica EM-CPC. Cryo-EM data acquisition was performed on a JEOL 2200FS (Jeol, Japan) 200 kV cryo-electron microscope equipped with an Omega in-column energy filter. High magnification (30,000×, corresponding pixel size 0.32 nm) zero-loss (slit: 20 eV) images were collected at nominal defocus between 1 and 4 µm depending on the experiment on a Gatan USC1000 slow scan CCD camera."}, "FtsZ [9]": {"system": "FtsZ", "conditions": "400 nm, 25 °C, 600 s, 100 mM KCl, 10 mM MgCl2, 25 mM Pipes pH 6.9, 15 µM proteins, GTP", "procedure": "The mixture was placed into a quartz cuvette with a light path of 10 mm or a 96-well plate and 0.5−2 mM GTP or GMPCPP were added to the reaction mixture. Data acquisition started immediately using an UV–Visible Spectrophotometer (Thermo scientific Evolution 220) during 600 s at 25 °C using 400 nm for excitation and emission and spectra with slits widths of 1 nm or a Varioskan™ LUX plate reader (Thermo Fisher Scientific) with an excitation of 400 nm. Experiments were done in triplicates and measurements were taken every 15 s during 600 s and keeping a constant temperature of 25 °C."}, "Pino-sepF strain [10]": {"system": "Pino-sepF strain", "test": "Cell length distribution (violin plots), Pino-sepF strains", "format": "cell-based, Corynebacterium glutamicum", "conditions": "1% myo-inositol + 1% gluconate, t = 6, replicate 1, listed as PgntK_SepF(K125R/F131A)_Scarlet", "procedure": "For imaging, cultures of C. glutamicum were grown in BHI or minimal medium CGXII during the day, and washed and inoculated into CGXII media for overnight growth. The following day cultures were diluted to OD600 = 1 and grown to the required OD (early exponential phase) for imaging. For HADA labeling, cultures were incubated with 0.5 mM HADA for 20 min at 30 °C in the dark. Two percent agarose pads were prepared with the corresponding growth medium and cells were visualized using a Zeiss Axio Observer Z1 microscope fitted with an Orca Flash 4 V2 sCMOS camera (Hamamatsu), and a Pln-Apo 63×/1.4 oil Ph3 objective. Images were collected using Zen Blue 2.6 (Zeiss) and analyzed using the software Fiji[70] and the plugin MicrobeJ[71] to generate violin plots and fluorescent intensity heatmaps. […] The experiments were performed as biological triplicates."}, "Pino-sepF strain [11]": {"system": "Pino-sepF strain", "test": "Scarlet fluorescence localization in the Pino-sepF strain", "format": "cell-based, Corynebacterium glutamicum", "conditions": "1% myo-inositol plus 1% gluconate", "method": "For imaging, cultures of C. glutamicum were grown in BHI or minimal medium CGXII during the day, and washed and inoculated into CGXII media for overnight growth. The following day cultures were diluted to OD600 = 1 and grown to the required OD (early exponential phase) for imaging. For HADA labeling, cultures were incubated with 0.5 mM HADA for 20 min at 30 °C in the dark. Two percent agarose pads were prepared with the corresponding growth medium and cells were visualized using a Zeiss Axio Observer Z1 microscope fitted with an Orca Flash 4 V2 sCMOS camera (Hamamatsu), and a Pln-Apo 63×/1.4 oil Ph3 objective. Images were collected using Zen Blue 2.6 (Zeiss) and analyzed using the software Fiji[70] and the plugin MicrobeJ[71] to generate violin plots and fluorescent intensity heatmaps. Statistical analyses of cell lengths are summarized in Supplementary Tables 5 and 6. The experiments were performed as biological triplicates. Some autofluorescence is observed for wild-type C. glutamicum as shown in Supplementary Fig. 24."}, "FtsZ [12]": {"system": "FtsZ", "conditions": "immunoprecipitation coupled to crosslinking; unpaired t-test p 0.004", "procedure": "Cells were harvested, washed, and normalized by resuspending cell pellets in PBS-T (1X PBS, 0.1% v/v Tween-80) to give a final OD600 of 3. The cell suspensions were cross-linked with 0.25% v/v of formaldehyde for 20 min at 30 °C with gentle agitation. The crosslinking reaction was stopped by adding 1.25 M glycine and incubated for 5 min at room temperature. Cells were resuspended in 50 mM Bis-Tris pH 7.4, 75 mM aminocaproic acid, 1 mM MgSO4, 1× Benzonase, 1× Complete Protease inhibitors cocktail (ROCHE) and disrupted at 4 °C with 0.1 mm glass beads and using a [sequence] 24 homogenizer. After lysis, 0.1% n-Dodecyl-β-D-Maltopyranoside was added and the total extract was incubated for 1 h at 4 °C. Cell lysates were centrifuged at 4 °C for 10 min at 14,000 rpm and the soluble fraction was collected and protein levels quantified.\nDetergent-solubilized protein extracts were incubated with 50 μl of magnetic beads cross-linked with 10 μg of purified anti-Scarlet antibody (produced by Covalab). […] Tryptic peptides from three replicates of each condition were analyzed using a nano-HPLC (Ultimate 3000, Thermo) coupled to a hybrid quadrupole-orbitrap mass spectrometer (Q-Exactive Plus, Thermo). […]\nPatternlab for proteomics was used for label-free quantitation analyses using extracted ion chromatogram (XIC)."}}, "note": "Numbering of substitutions follows the chain as printed. Numbers in names are those of the source."}
{"molecule": "B1", "values": [{"measurement": "FtsZ filament morphology by EM", "setting": "FtsZ [1]", "value": "thick bundles of FtsZ protofilaments, as well as highly curved filaments"}, {"measurement": "vesicle morphology by EM", "setting": "[2]", "value": "lipid vesicles were tubulated"}, {"measurement": "effect on GTPase activity of FtsZ", "setting": "FtsZ [3]; 15 µM SepF and FtsZ, F test p=0.5872", "value": "did not significantly affect the GTPase activity of FtsZ"}, {"measurement": "GTPase activity (phosphate release), mean", "setting": "FtsZ [3]; 15 µM each, 2 mM GTP, pH 6.9, room temperature, 10 min, mean, n = 11", "value": 0.09, "unit": "nmol"}, {"measurement": "ring-like structures by EM", "setting": "[4]", "value": "unsuccessful"}, {"measurement": "ring-like structures per cell", "setting": "WT C. glutamicum", "value": "multiple-rings phenotype is not observed"}, {"measurement": "complementation of SepF depletion (growth)", "setting": "Pino-sepF strain [5]", "value": "rescued"}, {"measurement": "protein overexpression upon induction", "setting": "SepF [6]", "value": "~ 30 fold"}, {"measurement": "polymerization with SUVs (turbidity)", "setting": "SepF [7]", "value": "SepF concentration-dependent polymerization"}, {"measurement": "band volume in whole-cell extract", "setting": "[8]; ON S (over-night, sucrose)", "value": 455544}, {"measurement": "band volume in whole-cell extract", "setting": "[8]; ON S+G (over-night, sucrose + gluconate)", "value": 420204}, {"measurement": "band volume in whole-cell extract", "setting": "[8]; T6 S (6 h, sucrose)", "value": 522995}, {"measurement": "band volume in whole-cell extract", "setting": "[8]; T6 S+G (6 h, sucrose + gluconate)", "value": 618345}, {"measurement": "particle size by DLS", "setting": "Dynamic light scattering", "value": "formation of large structures"}, {"measurement": "lipid binding in ternary complex", "setting": "FtsZ and SUVs", "value": "dimeric form of SepF retains lipid-binding capability"}, {"measurement": "effect on FtsZ polymerization / bundling", "setting": "FtsZ [9]", "value": "strong FtsZ bundling effect"}]}
{"molecule": "B2", "values": [{"measurement": "mean cell length", "setting": "Pino-sepF strain [10]", "value": 9.96}, {"measurement": "frequency of cells with n septa (ring-like structures)", "setting": "WT C. glutamicum; n septa 0, replicate 1", "value": 0.122}, {"measurement": "frequency of cells with n septa (ring-like structures)", "setting": "WT C. glutamicum; n septa 0, replicate 2", "value": 0.074}, {"measurement": "frequency of cells with n septa (ring-like structures)", "setting": "WT C. glutamicum; n septa 0, replicate 3", "value": 0.099}, {"measurement": "frequency of cells with n septa (ring-like structures)", "setting": "WT C. glutamicum; n septa 1, replicate 1", "value": 0.227}, {"measurement": "frequency of cells with n septa (ring-like structures)", "setting": "WT C. glutamicum; n septa 1, replicate 2", "value": 0.25}, {"measurement": "frequency of cells with n septa (ring-like structures)", "setting": "WT C. glutamicum; n septa 1, replicate 3", "value": 0.189}, {"measurement": "frequency of cells with n septa (ring-like structures)", "setting": "WT C. glutamicum; n septa 2, replicate 1", "value": 0.246}, {"measurement": "frequency of cells with n septa (ring-like structures)", "setting": "WT C. glutamicum; n septa 2, replicate 2", "value": 0.193}, {"measurement": "frequency of cells with n septa (ring-like structures)", "setting": "WT C. glutamicum; n septa 2, replicate 3", "value": 0.186}, {"measurement": "frequency of cells with n septa (ring-like structures)", "setting": "WT C. glutamicum; n septa 3, replicate 1", "value": 0.241}, {"measurement": "frequency of cells with n septa (ring-like structures)", "setting": "WT C. glutamicum; n septa 3, replicate 2", "value": 0.22}, {"measurement": "frequency of cells with n septa (ring-like structures)", "setting": "WT C. glutamicum; n septa 3, replicate 3", "value": 0.232}, {"measurement": "frequency of cells with n septa (ring-like structures)", "setting": "WT C. glutamicum; n septa 4, replicate 1", "value": 0.102}, {"measurement": "frequency of cells with n septa (ring-like structures)", "setting": "WT C. glutamicum; n septa 4, replicate 2", "value": 0.152}, {"measurement": "frequency of cells with n septa (ring-like structures)", "setting": "WT C. glutamicum; n septa 4, replicate 3", "value": 0.133}, {"measurement": "frequency of cells with n septa (ring-like structures)", "setting": "WT C. glutamicum; n septa 5, replicate 1", "value": 0.042}, {"measurement": "frequency of cells with n septa (ring-like structures)", "setting": "WT C. glutamicum; n septa 5, replicate 2", "value": 0.077}, {"measurement": "frequency of cells with n septa (ring-like structures)", "setting": "WT C. glutamicum; n septa 5, replicate 3", "value": 0.11}, {"measurement": "frequency of cells with n septa (ring-like structures)", "setting": "WT C. glutamicum; n septa 6, replicate 1", "value": 0.014}, {"measurement": "frequency of cells with n septa (ring-like structures)", "setting": "WT C. glutamicum; n septa 6, replicate 2", "value": 0.03}, {"measurement": "frequency of cells with n septa (ring-like structures)", "setting": "WT C. glutamicum; n septa 6, replicate 3", "value": 0.033}, {"measurement": "frequency of cells with n septa (ring-like structures)", "setting": "WT C. glutamicum; n septa 7, replicate 1", "value": 0.006}, {"measurement": "frequency of cells with n septa (ring-like structures)", "setting": "WT C. glutamicum; n septa 7, replicate 2", "value": 0.003}, {"measurement": "frequency of cells with n septa (ring-like structures)", "setting": "WT C. glutamicum; n septa 7, replicate 3", "value": 0.015}, {"measurement": "ring-like structures per cell", "setting": "WT C. glutamicum", "value": "net increase in the number of ring-like structures per cell"}, {"measurement": "localization of Scarlet construct", "setting": "Pino-sepF strain [11]", "value": "diffuse in the cytoplasm"}, {"measurement": "fold reduction of FtsZ binding (normalized FtsZ) versus SepF-Scarlet", "setting": "FtsZ [12]", "value": 7.2, "unit": "fold"}, {"measurement": "complementation of SepF depletion (growth)", "setting": "Pino-sepF strain [5]", "value": "completely failed to complement"}]}
